Measured values reported in publication PMC11477141, “Chemokine Receptor N-Terminus Charge Dictates Reliance on Post-Translational Modifications for Effective Ligand Capture and Following Boosting by Defense Peptides” (International Journal of Molecular Sciences, 2024).
One block for each molecule: values may come before it.

Legend:
[1] = tested on: CCR2; conditions: cited from earlier work
Text: The reliance on electrostatic interactions between basic amino acids in the chemokine and acidic regions in the receptor N-terminus for chemokine receptor binding is illustrated by a study carried out by Hemmerich et al.. To investigate the influence of charge, hydrophobicity, and aromaticity on binding of CCL2 to its cognate receptor CCR2, this group substituted all surface-exposed residues on CCL2 by alanine. […] In contr ...

[2] = molecular target: T1, CCR5 (Homo sapiens, UniProt P51681); assay: BRET CAMYEL cAMP sensor assay of ligand-induced Gαi signaling via CCR5; type: cell-based; conditions: n = 3; for Gαi signaling via CCR5 in DeltaSia cells compared to WT cells: HEK293 DeltaSia (ST3GAL1/2 KO); for Gαi signaling via CCR5 in sC cells compared to WT cells: HEK293 sC (C1GALT1 KO); for Gαi signaling via M1-CCR5 in DeltaSia and sC cells compared to WT cells: M1-tagged CCR5, HEK293 DeltaSia and sC; for Gαi signaling via CCR5 in DeltaSia and sC cells: HEK293 DeltaSia and sC, CCL5 oligomerization variants experiment; for Gαi signaling via CCR5 compared to WT CCL5: HEK293 WT cells
T1 construct: expressed in transfected cells; host or cells: CHO-K1, CHO-pgsB618 (GAG-minus), HEK293 WT / DeltaSia / sC
Experimental: (§1) For quantification of signaling initiated immediate downstream of receptor activation, we used the cAMP binding CAMYEL sensor to perform bioluminescence resonance energy transfer (BRET)-based assays. Shortly, in this assay increased receptor activation leads to an increase in BRET ratio. For detailed information see the Materials and Methods section.
(§2) In signaling assays testing the boosting ability of basic peptides, transfected cells were aliquoted into 96-well plates in the presence of 10 µM peptide or PBS vehicle. After R-Luc substrate addition, chemokines were added to reach final concentrations ranging from 0–100 nM (0, 0.1, 1, 10, and 100 nM) and forskolin was applied before reading emission at 475 and 525 nm.
(§3) BRET measurements of Gαi signaling and β-arrestin recruitment: Cells were seeded in 6-well plates (500,000 cells/well) and transiently transfected the following day. For BRET measurements of Gαi signaling, cells were transfected with vectors encoding the human chemokine receptors as indicated (160 ng/well) and the CAMYEL sensor (cAMP sensor, YFP-Epac-RLuc) (840 ng/well) using Lipofectamine (6 µL/well). Briefly, DNA was dissolved in 125 µL OPTI-MEM and Lipofectamine was dissolved in 125 µL OPTI-MEM. The DNA and Lipofectamine solutions were combined into a transfection mixture. The transfection mixture was added dropwise to cells incubated in OPTI-MEM (1 mL/well). Transfections were terminated after 5 h by adding 1 mL of fresh culture medium on top of the OPTI-MEM. The following day the cells were loosened from the plates in PBS with 5 mM glucose and subsequently aliquoted in white 96-well iso plates (~25,000 cells/well). When using C21TP variants and defense peptides (hBD2 and histatin), these were added to a final concentration of 10 μM/well, while an equal amount of PBS was added to control cells. The bioluminescence substrate coelenterazine was added to a final conc. of 5 µM. After 10 min, varying ligand concentrations were added. For BRET measurements of Gαi signaling, forskolin was added 5 min after the addition of the ligand, to a final conc. of 5 µM. The plates were kept in the dark at all times. A Perkin Elmer Envision machine was used for measuring the emission signals at 530 and 480 nm. The BRET signal is determined as the ratio eYFP (530 nm)/Rluc (480 nm).
(§4) BRET principle with CAMYEL: For quantification of signaling initiated immediately downstream of receptor activation, we used the cAMP binding CAMYEL sensor to perform bioluminescence resonance energy transfer (BRET) based assays. In this assay we measure changes in intracellular cAMP levels in response to receptor activation. Activation of chemokine receptors lead to a decrease in cAMP through inhibition of adenylate cyclase (AC). In the current setup we initially add forskolin that stimulates AC directly to induce an increase in intracellular cAMP, and we then measure the ability of a ligand (chemokine) to counteract the forskolin-induced increase in cAMP. The cAMP sensor (CAMYEL cAMP sensor, YFP-Epac-RLuc) carries the donor Renilla luciferase (Rluc) and the acceptor YFP. Coelenterazine is a substrate for Rluc that will emit light at around 475 nm upon enzymatic cleavage catalyzed by Rluc. When Rluc and YFP are in close proximity, the energy from the emitted light from coelenterazine can be transferred to YFP, resulting in an excitation of YFP, leading to a BRET signal around 525 nm. EPAC is a cAMP binding protein that changes conformation upon cAMP binding. During low cAMP concentrations, Rluc and YFP are near each other, and a strong BRET signal at 525 nm is obtained. When cAMP levels increase, cAMP will bind to EPAC, creating a conformational change, separating Rluc and YFP, reducing the BRET ratio, and increasing the emission from Rluc at 475 nm. Thus, by measuring the ratio between the cAMP-bound (475 nm) and the cAMP-free (525 nm) state of CAMYEL we obtain a measure of receptor activation. […]

[3] = molecular target: T2, CCR1 (Homo sapiens, UniProt P32246); assay: BRET CAMYEL cAMP sensor assay of ligand-induced Gαi signaling via CCR1; type: cell-based; conditions: n = 3; for Gαi signaling via CCR1 in DeltaSia and sC cells: CCL5 oligomerization variants experiment; for Gαi signaling via CCR1 compared to WT CCL5: HEK293 WT cells
T2 construct: expressed in transfected cells; host or cells: CHO-K1, CHO-pgsB618 (GAG-minus), HEK293 WT / DeltaSia / sC
T2 sequence (P32246 1-355): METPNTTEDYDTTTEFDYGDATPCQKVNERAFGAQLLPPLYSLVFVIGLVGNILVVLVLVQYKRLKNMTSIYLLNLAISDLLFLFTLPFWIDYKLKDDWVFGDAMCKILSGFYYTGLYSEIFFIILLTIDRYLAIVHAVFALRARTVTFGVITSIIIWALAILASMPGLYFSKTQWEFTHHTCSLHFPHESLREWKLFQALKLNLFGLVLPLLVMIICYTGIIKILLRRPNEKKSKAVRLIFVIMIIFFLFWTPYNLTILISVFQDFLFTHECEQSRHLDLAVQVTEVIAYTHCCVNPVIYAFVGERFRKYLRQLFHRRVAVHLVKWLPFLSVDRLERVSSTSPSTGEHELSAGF
Experimental: as §1, §2, §3, §4

[4] = tested on: CCR5-1like; assay: BRET CAMYEL Gαi signaling via chimeric receptor M1-CCR5-1like; type: cell-based, human; conditions: HEK293 DeltaSia and sC, n = 3
Text: To finally determine if the lack of acidic amino acids in the CCR5 N-terminus can explain the dependency of this receptor on O-glycosylation for effective ligand interaction, we constructed a CCR5 receptor chimera, where the most acidic N-terminal region of CCR1 was inserted into the CCR5 N-terminus, creating the chimeric receptor CCR5-1like (Figure 7).
Figure 7 Receptor N-termini representing CCR1, CCR5, and the chimeric CCR5-1like. The CCR1 N-terminus contains a lot of acidic amino acids (outlined in red) in the form of aspartic acid (D) and glutamic acid (E), whereas CCR5 only contains a few. The chimeric receptor CCR5-1like that contains part of the CCR1 receptor N-terminus (ETTTDYDE) resembles CCR1 with regard to acidic amino acid content and spacing, but they are not the same.
as §3
as §4, with “nm.” for “nm. EPAC is a cAMP binding protein that changes conformation upon cAMP binding. During low cAMP concentrations, Rluc and YFP are near each other, and a strong BRET signal at 525 nm is obtained. When cAMP levels increase, cAMP will bind to EPAC, creating a conformational change, separating Rluc and YFP, reducing the BRET ratio, and increasing the emission from Rluc at 475 nm. Thus, by measuring the ratio between the cAMP-bound (475 nm) and the cAMP-free (525 nm) state of CAMYEL we obtain a measure of receptor activation.”

T1 sequence (P51681 whole entry): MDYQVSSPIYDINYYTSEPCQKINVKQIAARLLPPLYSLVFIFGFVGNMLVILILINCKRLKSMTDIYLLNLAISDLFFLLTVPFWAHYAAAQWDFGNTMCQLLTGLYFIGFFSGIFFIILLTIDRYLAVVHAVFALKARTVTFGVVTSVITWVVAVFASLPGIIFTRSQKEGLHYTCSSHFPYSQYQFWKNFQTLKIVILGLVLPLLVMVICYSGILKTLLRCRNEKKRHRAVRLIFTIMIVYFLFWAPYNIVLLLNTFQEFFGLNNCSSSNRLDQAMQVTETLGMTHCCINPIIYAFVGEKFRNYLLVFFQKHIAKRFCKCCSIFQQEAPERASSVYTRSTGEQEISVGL

Molecule: R24A: CCL2 with R24A substitution (literature)
reduction of CCL2 binding to CCR2 by substitution in CCL2 [1]: ~ 30 fold

Molecule: K35E: CCL2 with K35 substituted by glutamic acid (literature)
reduction of CCL2 binding to CCR2 by substitution in CCL2 [1]: ≥ 1600 fold

Molecule: R24E: CCL2 with R24 substituted by glutamic acid (literature)
reduction of CCL2 binding to CCR2 by substitution in CCL2 [1]: ≥ 1600 fold

B1: E26A: mutant version of CCL5, obligate tetramer, expressed in E. coli (protein, UniProt P13501 24-91, looked up, variant E26A)
C-C motif chemokine 5: SPYSSDTTPCCFAYIARPLPRAHIKAYFYTSGKCSNPAVVFVTRKNRQVCANPEKKWVREYINSLEMS
Gαi signaling via CCR5 in DeltaSia and sC cells [2]: very low | Gαi signaling via CCR5 compared to WT CCL5 [2]: WT-like signaling | Gαi signaling via CCR1 in DeltaSia and sC cells ([3]; HEK293 DeltaSia and sC): remains high | Gαi signaling via CCR1 compared to WT CCL5 [3]: WT-like signaling

B2: E66A: mutant version of CCL5, obligate dimer, expressed in E. coli (protein, UniProt P13501 24-91, looked up, variant E66A)
C-C motif chemokine 5: SPYSSDTTPCCFAYIARPLPRAHIKEYFYTSGKCSNPAVVFVTRKNRQVCANPEKKWVREYINSLAMS
modifications: also: obligate dimer
notes: mutant version of CCL5, obligate dimer, expressed in E. coli
Gαi signaling via CCR5 in DeltaSia and sC cells [2]: very low | Gαi signaling via CCR5 compared to WT CCL5 [2]: WT-like signaling | Gαi signaling via CCR1 in DeltaSia and sC cells ([3]; HEK293 DeltaSia and sC): remains high | Gαi signaling via CCR1 compared to WT CCL5 [3]: WT-like signaling

More lines, main results first:

Gαi signaling via CCR5 in DeltaSia cells compared to WT cells [2]: drastically reduced | Gαi signaling via CCR5 in sC cells compared to WT cells [2]: drastically reduced | Gαi signaling via M1-CCR5 in DeltaSia and sC cells compared to WT cells [2]: drastically reduced
Molecule: CCL3: human chemokine from Peprotech, overall acidic
Gαi signaling via CCR1 in DeltaSia and sC cells compared to WT cells ([3]; HEK293 DeltaSia and sC): persists in DeltaSia and sC to almost the same high level as observed in WT cells | Gαi signaling via M1-CCR5-1like in DeltaSia and sC cells compared to WT cells [4]: persists in DeltaSia and sC to almost the same high level as observed in WT cells

Gαi signaling via CCR5 in DeltaSia cells compared to WT cells [2]: drastically reduced | Gαi signaling via CCR5 in sC cells compared to WT cells [2]: drastically reduced | Gαi signaling via M1-CCR5 in DeltaSia and sC cells compared to WT cells [2]: drastically reduced
B3: CCL8: human chemokine from Peprotech (protein, UniProt P80075 24-99, looked up)
C-C motif chemokine 8: QPDSVSIPITCCFNVINRKIPIQRLESYTRITNIQCPKEAVIFKTKRGKEVCADPKERWVRDSMKHLDQIFQNLKP
Gαi signaling via M1-CCR5-1like in DeltaSia and sC cells compared to WT cells [4]: persists in DeltaSia and sC to almost the same high level as observed in WT cells
